Test results as given in article PMC5464768, “ER retention is imposed by COPII protein sorting and attenuated by 4-phenylbutyrate” (eLife, 2017).

Tests used:
[1] = biological target: Sec24d (full-length, wild type) (H. sapiens) (UniProt O94855)
[2] = biological target: Sec24d (full-length, wild type) (H. sapiens) (UniProt O94855); remark: listed apart in the source

Chain of Sec24d (full-length, wild type) (H. sapiens) (O94855 whole entry): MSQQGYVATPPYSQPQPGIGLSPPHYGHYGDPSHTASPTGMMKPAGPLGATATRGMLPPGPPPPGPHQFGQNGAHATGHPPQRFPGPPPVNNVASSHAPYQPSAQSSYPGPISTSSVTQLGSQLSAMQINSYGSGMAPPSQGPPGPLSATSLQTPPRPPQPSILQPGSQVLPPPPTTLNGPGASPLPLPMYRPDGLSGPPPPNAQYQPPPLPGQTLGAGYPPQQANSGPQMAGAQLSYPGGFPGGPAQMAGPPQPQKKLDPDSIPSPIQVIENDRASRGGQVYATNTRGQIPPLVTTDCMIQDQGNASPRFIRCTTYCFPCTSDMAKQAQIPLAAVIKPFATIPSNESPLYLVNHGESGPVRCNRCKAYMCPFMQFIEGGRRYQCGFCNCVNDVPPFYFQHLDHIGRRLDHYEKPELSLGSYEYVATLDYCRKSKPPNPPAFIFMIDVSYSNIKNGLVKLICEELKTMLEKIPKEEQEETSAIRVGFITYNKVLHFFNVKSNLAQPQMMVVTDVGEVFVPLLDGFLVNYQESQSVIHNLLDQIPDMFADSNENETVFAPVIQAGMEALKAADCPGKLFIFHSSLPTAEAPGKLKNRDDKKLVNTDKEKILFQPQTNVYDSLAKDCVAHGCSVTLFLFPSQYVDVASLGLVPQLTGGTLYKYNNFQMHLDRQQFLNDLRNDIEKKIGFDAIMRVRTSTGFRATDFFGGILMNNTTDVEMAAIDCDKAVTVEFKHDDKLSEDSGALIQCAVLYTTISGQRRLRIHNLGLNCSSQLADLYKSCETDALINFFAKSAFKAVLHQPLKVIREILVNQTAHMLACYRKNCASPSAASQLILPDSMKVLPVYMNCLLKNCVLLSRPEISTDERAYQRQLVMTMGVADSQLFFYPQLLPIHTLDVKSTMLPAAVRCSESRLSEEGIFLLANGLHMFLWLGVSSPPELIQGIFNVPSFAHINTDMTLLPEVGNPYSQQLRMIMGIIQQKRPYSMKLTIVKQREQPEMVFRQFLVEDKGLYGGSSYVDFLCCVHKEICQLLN
Chain of p24β1 (P49020 16-196): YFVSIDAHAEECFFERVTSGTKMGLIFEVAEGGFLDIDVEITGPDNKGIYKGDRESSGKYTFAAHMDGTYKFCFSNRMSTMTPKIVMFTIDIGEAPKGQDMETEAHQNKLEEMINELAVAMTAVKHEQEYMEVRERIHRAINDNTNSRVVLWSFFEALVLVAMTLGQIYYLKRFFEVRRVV

Substance | packaging efficiency into COPII vesicles budded with wild-type COPII (Sec23a/24d), amount in vesicle as % of protein present in starting permeabilized cells; CHO-LDLR G544V cells [1] | reduction of the packaging rate into COPII vesicles (Sec23a/24d) budded in the presence of 10 mM 4-PBA [2] | packaging efficiency into COPII vesicles budded with wild-type COPII (Sec23a/24d), amount in vesicle as % of protein present in starting permeabilized cells; wild-type CHO cells [1]
ERGIC-53 (natural protein) | 4.5% | 50 % reduction | –
p24α2 (natural protein) | 8.7% | – | 10.9%
p24α3 (natural protein) | 6.4% | 50 % reduction | 6.4%

The next lines start with the values.

packaging efficiency into COPII vesicles budded with wild-type COPII (Sec23a/24d), amount in vesicle as % of protein present in starting permeabilized cells; CHO-LDLR G544V cells [1] | reduction of the packaging rate into COPII vesicles (Sec23a/24d) budded in the presence of 10 mM 4-PBA [2] | packaging efficiency into COPII vesicles budded with wild-type COPII (Sec23a/24d), amount in vesicle as % of protein present in starting permeabilized cells; wild-type CHO cells [1] | Substance
10.6% | 50 % reduction | – | p24β1 (from UniProt P49020 16-196) (natural protein)
7.7% | – | 4.6% | p24δ1 (natural protein)
